{"source": "paper PMC7889167", "about": "(mAbs, 2021)", "binders": {"B1": {"name": "europium cryptate-labeled MJ4-2 (antibody, V domains shown)", "VH": "EVQLVESGGGLVQPGRSLRLSCAASGVTFSDYHMAWVRQAPKKGLEWVATIIYDAARTYYRDSVKGRFTISRDNAKNSLYLQMNSLRAEDTAVYYCATWQTTGTPGWFAYWGQGTLVTVSS", "VL": "DIQMTQSPSSLSASVGDRVTITCGASQSVSISRFNLMHWYQQKPGHQPKLLIYRASNLASGVPSRFSGSGSGTDFTLTINPLQAEDFATYYCQQSRESPPTFGGGTKVEIK"}}, "target": "biotinylated hIL-21 R (human, UniProt Q9HBE5, biotin (site not stated))", "sequence (Q9HBE5 20-232)": "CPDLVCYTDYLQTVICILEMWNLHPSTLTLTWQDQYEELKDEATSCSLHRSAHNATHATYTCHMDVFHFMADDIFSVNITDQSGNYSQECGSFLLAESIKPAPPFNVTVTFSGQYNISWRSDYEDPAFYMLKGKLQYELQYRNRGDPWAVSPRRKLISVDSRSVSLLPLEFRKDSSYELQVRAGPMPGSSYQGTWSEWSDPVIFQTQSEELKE", "experiment": "AlphaScreen or HTRF", "data": [{"binder": "B1", "values": [{"measurement": "binding result", "result": "binds"}]}]}
